Results reported in paper PMC3177959.

Target: M3 muscarinic acetylcholine receptor labeled at its N terminus with ECFP (human) (UniProt P20309)
Experiment: FRAP of the mobile partner with the other partner immobilised

UniProt P20309, sequence (P20309 whole entry): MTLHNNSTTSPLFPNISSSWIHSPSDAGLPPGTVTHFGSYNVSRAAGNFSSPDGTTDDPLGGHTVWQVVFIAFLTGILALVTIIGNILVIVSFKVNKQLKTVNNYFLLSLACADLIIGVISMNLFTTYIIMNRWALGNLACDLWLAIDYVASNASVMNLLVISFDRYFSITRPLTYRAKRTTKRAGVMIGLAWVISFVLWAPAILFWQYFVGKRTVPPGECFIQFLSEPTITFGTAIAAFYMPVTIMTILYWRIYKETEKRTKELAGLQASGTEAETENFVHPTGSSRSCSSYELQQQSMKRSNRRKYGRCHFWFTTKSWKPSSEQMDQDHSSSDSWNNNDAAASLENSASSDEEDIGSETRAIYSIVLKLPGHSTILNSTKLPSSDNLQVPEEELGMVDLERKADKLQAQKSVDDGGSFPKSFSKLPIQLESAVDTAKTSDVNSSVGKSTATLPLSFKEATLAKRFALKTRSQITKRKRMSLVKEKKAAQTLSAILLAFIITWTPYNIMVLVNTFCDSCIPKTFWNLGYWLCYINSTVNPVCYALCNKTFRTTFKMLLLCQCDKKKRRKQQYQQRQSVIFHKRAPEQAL

Substance “Gq heterotrimer: venus-labeled Gαq with unlabeled Gβ1 and Gγ2 (from UniProt P21279;P62873;P59768) (complex)” has an unrecovered fraction five minutes after photobleaching of 0.23.
